Assay results as given in ChEMBL document CHEMBL1122856, “Study on the inhibition of adenosine deaminase” (J Med Chem, 1985).

Substrate: Cc1c([C@@H](C)O)ncn1C1O[C@H](CO)[C@@H](O)[C@H]1O
Description: Ability to inhibit the deamination of adenosine by calf intestine adenosine deaminase expressed as Km

B1: Adenosine deaminase (Bos taurus), P56658 (protein)
chain: MAQTPAFNKPKVELHVHLDGAIKPETILYYGRKRGIALPADTPEELQNIIGMDKPLSLPEFLAKFDYYMPAIAGCREAVKRIAYEFVEMKAKDGVVYVEVRYSPHLLANSKVEPIPWNQAEGDLTPDEVVSLVNQGLQEGERDFGVKVRSILCCMRHQPSWSSEVVELCKKYREQTVVAIDLAGDETIEGSSLFPGHVKAYAEAVKSGVHRTVHAGEVGSANVVKEAVDTLKTERLGHGYHTLEDATLYNRLRQENMHFEVCPWSSYLTGAWKPDTEHPVVRFKNDQVNYSLNTDDPLIFKSTLDTDYQMTKNEMGFTEEEFKRLNINAAKSSFLPEDEKKELLDLLYKAYGMPSPASAEQCL
B1 was tested, and the Km was 39 µM.
